5 molecules from PMC3792639, “Complex structure of type VI peptidoglycan muramidase effector and a cognate immunity protein” (Acta Crystallographica Section D: Biological Crystallography, 2013) can be followed below.

T1: Tse3 (type VI secretion exported 3), native recombinant protein (P. aeruginosa, UniProt Q9HYC5 1-408)
T1 construct: Tse3, type VI secretion exported 3, peptidoglycan muramidase effector of Pseudomonas aeruginosa; full-length, synthetic gene in pET-22b (NdeI/XhoI); Removal of the His tag is not mentioned; also called muramidase effector; source: E. coli BL21(DE3), purified (Ni-NTA, cation exchange, SEC)
T1 sequence: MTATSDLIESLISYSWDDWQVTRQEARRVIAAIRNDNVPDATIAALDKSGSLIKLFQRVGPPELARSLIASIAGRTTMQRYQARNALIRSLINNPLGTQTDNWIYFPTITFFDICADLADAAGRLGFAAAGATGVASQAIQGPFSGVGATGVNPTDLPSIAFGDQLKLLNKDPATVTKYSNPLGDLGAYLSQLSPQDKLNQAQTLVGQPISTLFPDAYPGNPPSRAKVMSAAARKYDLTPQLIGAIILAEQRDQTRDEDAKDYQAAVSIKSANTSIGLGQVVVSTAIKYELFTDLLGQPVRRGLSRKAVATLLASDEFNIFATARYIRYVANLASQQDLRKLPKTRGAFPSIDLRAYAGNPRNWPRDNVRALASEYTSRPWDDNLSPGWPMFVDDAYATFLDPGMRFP

B1: Tsi3, truncated, without the N-terminal signal peptide (wild type) (natural protein)
chain: GVDFDKTLTHPNGLVVERPVGFDARRSAEGFRFDEGGKLRNPRQLEVQRQDAPPPPDLASRRLGDGEARYKVEEDDGGSAGSEYRLWAAKPAGARWIVVSASEQSEDGEPTFALAWALLERARLQ
notes: Tsi3, immunity protein of Tse3, Pseudomonas aeruginosa; truncated, without the N-terminal signal peptide (residues 1-20); synthetic gene in pET-22b (NdeI/XhoI); also called wild-type Tsi3; cognate immunity protein; source: E. coli BL21(DE3), purified (Ni-NTA, ion exchange, SEC)
B2: Tsi3 Q124A (natural protein)
chain: GVDFDKTLTHPNGLVVERPVGFDARRSAEGFRFDEGGKLRNPRQLEVQRQDAPPPPDLASRRLGDGEARYKVEEDDGGSAGSEYRLWAAKPAGARWIVVSASEASEDGEPTFALAWALLERARLQ
notes: Tsi3, Pseudomonas aeruginosa, mutant of the truncated construct without the signal peptide (residues 1-20)
B3: Tsi3 E103A (natural protein)
chain: GVDFDKTLTHPNGLVVERPVGFDARRSAEGFRFDEGGKLRNPRQLEVQRQDAPPPPDLASRRLGDGEARYKVEEDDGGSAGSAYRLWAAKPAGARWIVVSASEQSEDGEPTFALAWALLERARLQ
notes: as for B2
B4: Tsi3 E126A (natural protein)
chain: GVDFDKTLTHPNGLVVERPVGFDARRSAEGFRFDEGGKLRNPRQLEVQRQDAPPPPDLASRRLGDGEARYKVEEDDGGSAGSEYRLWAAKPAGARWIVVSASEQSADGEPTFALAWALLERARLQ
notes: as for B2
B5: Tsi3 S99A (natural protein)
chain: GVDFDKTLTHPNGLVVERPVGFDARRSAEGFRFDEGGKLRNPRQLEVQRQDAPPPPDLASRRLGDGEARYKVEEDDGGAAGSEYRLWAAKPAGARWIVVSASEQSEDGEPTFALAWALLERARLQ
notes: as for B2

The first assay addresses T1, Tse3 (type VI secretion exported 3), …. In words: not stated; stoichiometry observed in solution; method not given. As to conditions: both partners purified.
For B1, the stoichiometry N (as a rule, the number of molecules, sites or subunits per partner or assembly) was found to be 1.

The next assay shares this target. The assay can be described thus: SPR; Biacore 3000, 298 K; Tse3 immobilised on a CM5 chip (2689.1-3396.3 RU); Tsi3 injected, single-cycle kinetics, five concentrations (0.02-1.62 µM for wild type, E103A, Q124A; 0.1-8.1 µM for R60A, S99A, E126A); running buffer 50 mM HEPES pH 7.5, 100 mM NaCl, 0.005% Tween-20; 1:1 Langmuir fit. As to conditions: both partners purified. On the technique in general: Surface plasmon resonance follows binding to a sensor surface in real time, without labels.
B1: the Kd (in general, the equilibrium constant for the complex coming apart) was 28.1 nM and the association rate constant (kon) (usually the rate constant with which the complex forms) was determined as 12900 M⁻¹ s⁻¹.
For B2, the Kd was 58.8 nM and the on-rate (kon) stood at 17300 M⁻¹ s⁻¹.
The like results for B3 were, in that order, 43.6 nM and 14300 M⁻¹ s⁻¹.
Taken in the same sequence, the figures for B4 were 417 nM and 12100 M⁻¹ s⁻¹.
For B5, the Kd worked out at 3290 nM and the kon worked out at 8990 M⁻¹ s⁻¹.
